Data on ten molecules can be found in US20220002426A1 (BIOINVENT INTERNATIONAL, published 2022).

For assay [1], the target named is T1, wild type, full length murine TNFR2 (on cells) (mouse, UniProt P25119 23-474).
T1 construct: whole, on cells; also called mTNFR2; mouse TNFR2
T1 sequence (looked up): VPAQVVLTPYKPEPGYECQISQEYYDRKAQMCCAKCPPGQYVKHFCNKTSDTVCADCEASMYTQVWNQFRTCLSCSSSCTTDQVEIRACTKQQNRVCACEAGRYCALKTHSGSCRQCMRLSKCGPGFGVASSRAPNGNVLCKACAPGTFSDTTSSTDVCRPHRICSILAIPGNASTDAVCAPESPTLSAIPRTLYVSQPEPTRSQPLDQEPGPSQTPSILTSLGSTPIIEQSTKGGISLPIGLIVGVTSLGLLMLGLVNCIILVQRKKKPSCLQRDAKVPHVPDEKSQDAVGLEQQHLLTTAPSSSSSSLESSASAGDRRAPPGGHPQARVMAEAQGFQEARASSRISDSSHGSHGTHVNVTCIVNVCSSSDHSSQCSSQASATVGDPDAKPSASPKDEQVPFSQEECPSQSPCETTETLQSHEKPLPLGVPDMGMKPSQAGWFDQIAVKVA
In words: FACS, transfected HEK293 cells. (In general: Flow cytometry measures light scatter and fluorescence of single cells or particles in a stream.)

Assay [2] concerns the target T2, wild type, full length human TNFR2 (on cells) (human, UniProt P20333 23-461).
T2 construct: whole, on cells; also called hTNFR2; TNFRII
T2 sequence (looked up): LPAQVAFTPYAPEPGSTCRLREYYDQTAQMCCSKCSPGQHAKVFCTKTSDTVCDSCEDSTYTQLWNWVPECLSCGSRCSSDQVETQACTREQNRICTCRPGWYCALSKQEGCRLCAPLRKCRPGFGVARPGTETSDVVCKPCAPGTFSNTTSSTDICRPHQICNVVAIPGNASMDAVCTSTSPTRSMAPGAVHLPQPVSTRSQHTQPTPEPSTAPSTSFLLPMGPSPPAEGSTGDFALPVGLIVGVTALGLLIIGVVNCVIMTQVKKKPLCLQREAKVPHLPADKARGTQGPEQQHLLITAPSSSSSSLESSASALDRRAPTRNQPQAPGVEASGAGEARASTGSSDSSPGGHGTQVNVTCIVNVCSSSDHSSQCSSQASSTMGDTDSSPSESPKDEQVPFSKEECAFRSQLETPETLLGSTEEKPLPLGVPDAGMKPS
Put plainly: FACS, activated CD4+ T cells. As to the method:
The ability and affinity of TNFR2 n-CoDeR® antibodies to bind TNFR2 expressed on cells were obtained using in vitro activated CD4⁺ T cells. Human CD4⁺ T cells were stimulated with 50 ng/ml rhIL-2 (R&D systems) and Dynabeads® T-Activator CD3/CD28 for T-Cell Expansion and Activation (Gibco) 2-3 days at 37 degrees. […] Cells were then incubated with an APC conjugated a-human IgG secondary ab (Jackson) followed by analysis by flow cytometry (FACSVerse, BD).

Assay [3] deals with T3, recombinant human TNFR2-Fc protein (Sino Biological) (human, UniProt P20333 23-257, limits assumed).
T3 construct: bought; also called human TNFR2 protein; not shown: Fc part of the bought fusion protein; not described
T3 sequence (looked up): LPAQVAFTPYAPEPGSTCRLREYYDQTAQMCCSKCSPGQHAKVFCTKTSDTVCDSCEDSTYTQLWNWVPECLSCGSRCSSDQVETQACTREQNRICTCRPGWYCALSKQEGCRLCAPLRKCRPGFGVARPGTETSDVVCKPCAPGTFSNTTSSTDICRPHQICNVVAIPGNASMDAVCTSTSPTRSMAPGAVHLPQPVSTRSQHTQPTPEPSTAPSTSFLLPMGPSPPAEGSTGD
Put plainly: ELISA, coated TNFR2-Fc. The protocol:
(§1) 96-well plates (Lumitrac 600 LIA plate, Greiner) were coated overnight at 4° C. with recombinant human or mouse TNFR2-Fc protein (Sino Biological) at 1 pmol/well. After washing, titrated doses of anti-TNFR2 mAbs from 20 μg/ml to 0.1 ng/ml (133 nM to 1 pM) were allowed to bind for 1 hour. Plates were then washed again, and bound antibodies were detected with an anti-human-F(ab)-HRP secondary antibody (Jackson ImmunoResearch) diluted in 50 ng/ml. Super Signal ELISA Pico (Thermo Scientific) was used as substrate and the plates were analyzed using Tecan Ultra Microplate reader.
A general note: ELISA stands for enzyme-linked immunosorbent assay.

The target of assay [4] is T1, wild type, full length murine TNFR2 (on …). In words: FACS, activated mouse CD4+ T cells.
Assay [5] concerns the target T4, recombinant mouse TNFR2-Fc protein (Sino Biological) (mouse, UniProt P25119 23-258, limits assumed).
T4 construct: bought; also called mTNFR2 protein; mTNFR2; not shown: Fc part of the bought fusion protein; not described
T4 sequence (looked up): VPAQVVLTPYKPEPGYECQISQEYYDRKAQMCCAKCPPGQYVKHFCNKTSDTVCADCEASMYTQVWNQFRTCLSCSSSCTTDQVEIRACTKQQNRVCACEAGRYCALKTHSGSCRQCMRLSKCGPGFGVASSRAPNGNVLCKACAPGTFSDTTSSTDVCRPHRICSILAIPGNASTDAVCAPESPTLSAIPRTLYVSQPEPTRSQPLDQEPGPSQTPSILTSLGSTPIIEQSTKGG
Put plainly: ELISA, coated TNFR2-Fc. As to the method:
as §1

Assay [6] has as its target T5, hTNFRII (Sinobioologicals Cat nr10414-H08H) (human, UniProt P20333 23-257).
T5 construct: bought; also called immobilized TNFR2
T5 sequence (looked up): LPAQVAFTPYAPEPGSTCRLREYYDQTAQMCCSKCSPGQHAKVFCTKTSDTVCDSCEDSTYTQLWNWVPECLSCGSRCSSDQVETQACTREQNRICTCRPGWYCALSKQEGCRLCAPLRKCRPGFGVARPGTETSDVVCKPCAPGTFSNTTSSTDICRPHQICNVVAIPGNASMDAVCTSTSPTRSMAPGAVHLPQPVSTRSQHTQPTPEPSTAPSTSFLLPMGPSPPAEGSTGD
Put plainly: blocking ELISA, coated hTNFRII, competitor hTNF-α-bio 5 nM. As to the method:
96-well plates were coated with hTNFRII (Sinobioologicals Cat nr10414-H08H) or mTNFRII (Sinobioologicals Cat No. 50128 M08H) at 2.5 pmol/well in ELISA coating buffer (0.1 M sodium carbonate pH 9.5) and incubated overnight at 4° C. After washing in ELISA wash buffer (PBS with 0.05% Tween20), the plates were incubated under slow agitation for 1 h in room temperature with n-CoDeR® mAbs at 10 μg/ml (one-dose ELISA) or 33 nM and subsequent 1:2 dilutions (titration ELISA) in block buffer containing 0.45% fish gelatin. […] Thereafter, plates were washed. For the human ELISAs, Streptavidin-HRP (Jackson Cat No. 016-030-084) diluted 1:2000 in block buffer were added and again incubated for 1 h at room temperature followed by washes first in ELISA buffer and then in Tris buffer (pH 9.8). The substrate (Super Signal ELISA Pico from Thermo Scientific Cat. No. 37069) were thereafter diluted according to the manufacturers instruction, added to the wells and incubated in darkness for 10 min before reading in a Tecan Ultra. […] After washing, anti-Rabbit-HRP diluted 1:10 000 in block buffer was added and again incubated for 1 h at room temperature. Substrate adding and reading were performed as above.

B1: 001-F02 (antibody, V domains shown)
VH: EVQLLESGGGLVQPGGSLRLSCAASGFTFSDYYMSWVRQAPGKGLEWVANINTDGSEKYYLDSVKGRFTISRDNSKNTLYLQMNSLRAEDTAVYYCAREEYGAFDIWGQGTLVTVSS
VL: QSVLTQPPSASGTPGQRVTISCSGSSSNIGSNTVNWYQQLPGTAPKLLIYDNNKRPSGVPDRFSGSKSGTSASLAISGLRSEDEADYYCQSFDRGLSGSIVFGGGTKLTVLG
notes: IgG; In the MDSC assay tested as hIgG1, hIgG2 and N297Q
The term EC50 denotes the midpoint of the concentration-response curve. For B1, the binding result in assay [1] was “no binding”. In addition, the EC50 came to 0.79 nM in assay [2] and 0.31 nM in assay [3].

B2: 001-F06 (antibody, V domains shown)
VH: EVQLLESGGGLVQPGGSLRLSCAASGFTFSSYAMHWVRQAPGKGLEWVSAISGGATTTYYADSVKGRFTISRDNSKNTLYLQMNSLRAEDTAVYYCAKGGTGDPYYFDYWGQGTLVTVSS
VL: QSVLTQPPSASGTPGQRVTISCTGSSSNIGAGYDVHWYQQLPGTAPKLLIYRNNQRPSGVPDRFSGSKSGTSASLAISGLRSEDEADYYCAARDDGLSGPVFGGGTKLTVLG
notes: IgG
For the molecule B2, the binding result in assay [1] was “no binding”. In addition, the EC50 was found to be 2.5 nM in assay [2] and 0.15 nM in assay [3].

B3: 005-A05 (antibody, V domains shown)
VH: EVQLLESGGGLVQPGGSLRLSCAASGFTFSSYAMSWVRQAPGKGLEWVSTIIGSGANTWYADSVKGRFTISRDNSKNTLYLQMNSLRAEDTAVYYCARHEGYYYYGMDVWGQGTLVTVSS
VL: QSVLTQPPSASGTPGQRVTISCTGSSSNIGAGYVVHWYQQLPGTAPKLLIYGNSNRPSGVPDRFSGSKSGTSASLAISGLRSEDEADYYCAAWDDSLNGRVFGGGTKLTVLG
notes: also called 5-A05 (mouse)
Take B3: the concentration for a half-maximal effect (EC50) worked out at 0.11 nM in assay [4] and 1.4 nM in assay [5].

B4: 001-E06 (antibody, V domains shown)
VH: EVQLLESGGGLVQPGGSLRLSCAASGFTFSSNYMSWVRQAPGKGLEWVALIWYDGSNKYYADSVKGRFTISRDNSKNTLYLQMNSLRAEDTAVYYCAKDPLFDSWGQGTLVTVSS
VL: QSVLTQPPSASGTPGQRVTISCTGRSSNIGAGYDVHWYQQLPGTAPKLLIYDNNKRPSGVPDRFSGSKSGTSASLAISGLRSEDEADYYCAAWDDSLNGPVFGGGTKLTVLG
notes: IgG
Turning to B4, the EC50 in assay [6] was found to be 0.3 nM; in assay [2] it was 4.1 nM; in assay [3], 0.2 nM.

B5: 005-B02 (antibody, V domains shown)
VH: EVQLLESGGGLVQPGGSLRLSCAASGFTFSDYYMSWIRQAPGKGLEWVALIWYDGGNEYYADSVKGRFTISRDNSKNTLYLQMNSLRAEDTAVYYCVRETGNYGMDVWGQGTLVTVSS
VL: QSVLTQPPSASGTPGQRVTISCTGSSSNIGAGYDVHWYQQLPGTAPKLLIYRNNQRPSGVPDRFSGSKSGTSASLAISGLRSEDEADYYCATWDDRVNGPVFGGGTKLTVLG
notes: IgG
On to B5, for which the figures for the EC50 in assay [6], in assay [2] and in assay [3] were 0.2 nM, 0.8 nM and 0.15 nM, respectively.

B6: 001-H10 (antibody, V domains shown)
VH: EVQLLESGGGLVQPGGSLRLSCAASGFTFDDYGMSWVRQAPGKGLEWVSVIYSGGSTYYADSVKGRFTISRDNSKNTLYLQMNSLRAEDTAVYYCARDRSSSWYRDGMDVWGQGTLVTVSS
VL: QSVLTQPPSASGTPGQRVTISCTGSSSNIGAGYDVHWYQQLPGTAPKLLIYGNSNRPSGVPDRFSGSKSGTSASLAISGLRSEDEADYYCAAWDDSLSGWVFGGGTKLTVLG
notes: IgG
On to B6, for which the EC50 was 0.9 nM in assay [6], 1.1 nM in assay [2] and 0.29 nM in assay [3].

B7: 005-B08 (antibody, V domains shown)
VH: EVQLLESGGGLVQPGGSLRLSCAASGFTFSDYYMSWIRQAPGKGLEWVAIISYDGGGKYFADPVKGRFTISRDNSKNTLYLQMNSLRAEDTAVYYCARYYGDGGFDPWGQGTLVTVSS
VL: not shown
notes: IgG
In the case of B7, the half-maximal effective concentration (EC50) in assay [6] turned out to be 0.3 nM; in assay [2] it was 1.2 nM; in assay [3], 0.17 nM. Also, in assay [1], the binding result is “no binding”.

B8: 001-C07 (antibody, V domains shown)
VH: EVQLLESGGGLVQPGGSLRLSCAASGFTFSSYEMNWVRQAPGKGLEWVSTITGGGSIYDANSVQGRFTISRDNSKNTLYLQMNSLRAEDTAVYYCARDSTYHSSGYYYDVFDIWGQGTLVTVSS
VL: not shown
notes: IgG
B8: the results for the EC50 in assay [6], in assay [2] and in assay [3] were 0.8 nM, 36 nM and 0.26 nM, respectively.

B9: 001-G10 (antibody, V domains shown)
VH: EVQLLESGGGLVQPGGSLRLSCAASGFTFSAYGMHWVRQAPGKGLEWVAVVSYDGREKHYADSVKGRFTISRDNSKNTLYLQMNSLRAEDTAVYYCARSDGGYDSDSGYYWGQGTLVTVSS
VL: QSVLTQPPSASGTPGQRVTISCSGSTSNIGSNFVYWYQQLPGTAPKLLIYDNNKRPSGVPDRFSGSKSGTSASLAISGLRSEDEADYYCSSYAYSDNILFGGGTKLTVLG
notes: IgG
On to B9, for which the EC50 is 1.6 nM in assay [6], 3.3 nM in assay [2] and 0.29 nM in assay [3]. Also, the binding result in assay [1] is given as “no binding”.

B10: 001-H09 (antibody, V domains shown)
VH: EVQLLESGGGLVQPGGSLRLSCAASGFTFSSYAMSWVRQAPGKGLEWVATISYHGSDKDYADSVKGRFTISRDNSKNTLYLQMNSLRAEDTAVYYCARDANYHSSGYYYDVFDIWGQGTLVTVSS
VL: not shown
notes: IgG
In the case of B10, the results for the 50% effective concentration (EC50) in assay [6], in assay [2] and in assay [3] were 1.4 nM, 16 nM and 0.3 nM, respectively.
